The record followed here is patent US20190321303A1.

Test in all cases: cell-based or functional assay
Assay [1] concerns the target Chymotrypsin having an activity of approx. 40 BTEE units per mg.
Assay [2] has the same target. As to conditions: scale: mg ChymoTrypsin inhibited/1 mgP-ChymoTrypsin Inhibitor.
Assay [3] concerns the target Trypsin having an activity of approx. 10,000 BAEE units per mg.
The mark [4] stands for this setting: scale: mg ChymoTrypsin inhibited/1 mgP-ChymoTrypsin Inhibitor.

In assay [1], “Bowman-Birk inhibitor (BBI) purified from soy flour” displayed a BBI activity of final product, after the change of the filtration process of 0.8 to 1.4 mg⁻¹; a BBI activity of final product, before the change of the filtration process of 0.4 to 0.6 mg⁻¹; a BBI activity, step: Final after lyophilization "as-is" (mg chymotrypsin inhibited per mg solid) of 0.8; a Chymotrypsin inhibitor activity of purified BBI (mg chymotrypsin inhibited per mg) of 1.49. In assay [1] (setting [4]), the BBI activity, step: BBI permeate of 30 Kda. turned out to be 0.8; the BBI activity, step: BBI pool was 0.5; the BBI activity, step: Permeate of 5 KDa was found to be 0.13; the BBI activity, step: Retentate of 5 KDa after 4.5 x concentration was determined as 0.8. In assay [1] (setting [4]), this substance came in with a BBI activity, step: Retentate of 10 Kda after diafiltration of 0.7 and a BBI activity, step: Retentate of 30 KDa of 0.13. In assay [1] (scale: mg chymotrypsin inhibited per mg dry weight), this substance showed a BBI activity, final lyophilized product on the basis of dry weight of 0.9. For the same substance, in assay [1] (scale: not given), the BBI Activity, large-scale prep came to 1.49 and the BBI Activity, previous procedure turned out to be 1.2. In assay [2], this substance registered a BBI activity, step: BBI After formulation and microfiltration 0.45/0.2 of 0.8; a BBI activity, step: BBI permeate, after 30 Kda UF and additional washes of 0.8; a BBI activity, step: BBI pool of 0.6; a BBI activity, step: BBI pool after microfiltration 0.45/0.2 of 0.6. Besides, in assay [2], the BBI activity, step: Final after lyophilization was found to be 0.9; the BBI activity, step: Retentate of 5 KDa after 5x concentration was found to be 0.9; the BBI activity, step: Retentate of 10 Kda after diafiltration came out at 1.
In assay [1], “SBTI intermediate (crude soybean trypsin inhibitor preparation from soy flour)” registered a BBI activity, quality control of material loaded on the DEAE column of 0.09 not printed and a Chymotrypsin inhibitor activity of SBTI intermediate (large-scale prep) (mg chymotrypsin inhibited per mg protein) of 0.98. For the same substance, in assay [3], the KTI activity, quality control of material loaded on the DEAE column is 0.97 not printed and the Trypsin inhibitor activity of SBTI intermediate (large-scale prep) (mg trypsin inhibited per mg protein) was 1.34.
